According to publication PMC7351741, “Structural basis of seamless excision and specific targeting by piggyBac transposase”:

Key:
[1] = biological target: piggyBac transposase (PB), full-length, Trichoplusia ni (Trichoplusia ni); test: SEC-MALS; purified PB at 4 and 2 mg/ml, Superdex 200 Increase 10/300, 20 mM HEPES pH 7.5, 100 mM NaCl, 1 mM TCEP; no DNA
[2] = biological target: T1, piggyBac transposase (PB) (Trichoplusia ni, UniProt Q283G1 1-594); test: cryo-EM; 5 mM Ca2+; Zn2+ in CRD; SNHP: 50 mM Tris-Cl pH 8.0, 100 mM NaCl, 5 mM CaCl2, 1 mM TCEP, mixed 1 h at 25 C; STC: 50 mM Tris-Cl pH 8.0, 500 mM NaCl dialyzed to 200 mM NaCl, 10 mM CaCl2; details: protein: recombinant; tags: N-terminal MBP tag removed by TEV; chain copies: 2; hairpin, 35 bp stem, TTAA loop; 2 copies per PB dimer
[3] = biological target: T1, piggyBac transposase (PB); test: cryo-EM; 10 mM Ca2+; Zn2+ in CRD; SNHP: 50 mM Tris-Cl pH 8.0, 100 mM NaCl, 5 mM CaCl2, 1 mM TCEP, mixed 1 h at 25 C; STC: 50 mM Tris-Cl pH 8.0, 500 mM NaCl dialyzed to 200 mM NaCl, 10 mM CaCl2; details: protein: recombinant; tags: N-terminal MBP tag removed by TEV; chain copies: 2; four annealed oligos, 2 copies of each; S4 pairs with S5+S6 (break between S5 and S6), 5' CCGG flap on S4; S7 pairs with 3' 11 nt of S6; central target TTAA unpaired in the complex

T1 sequence (Q283G1 entry or part of it): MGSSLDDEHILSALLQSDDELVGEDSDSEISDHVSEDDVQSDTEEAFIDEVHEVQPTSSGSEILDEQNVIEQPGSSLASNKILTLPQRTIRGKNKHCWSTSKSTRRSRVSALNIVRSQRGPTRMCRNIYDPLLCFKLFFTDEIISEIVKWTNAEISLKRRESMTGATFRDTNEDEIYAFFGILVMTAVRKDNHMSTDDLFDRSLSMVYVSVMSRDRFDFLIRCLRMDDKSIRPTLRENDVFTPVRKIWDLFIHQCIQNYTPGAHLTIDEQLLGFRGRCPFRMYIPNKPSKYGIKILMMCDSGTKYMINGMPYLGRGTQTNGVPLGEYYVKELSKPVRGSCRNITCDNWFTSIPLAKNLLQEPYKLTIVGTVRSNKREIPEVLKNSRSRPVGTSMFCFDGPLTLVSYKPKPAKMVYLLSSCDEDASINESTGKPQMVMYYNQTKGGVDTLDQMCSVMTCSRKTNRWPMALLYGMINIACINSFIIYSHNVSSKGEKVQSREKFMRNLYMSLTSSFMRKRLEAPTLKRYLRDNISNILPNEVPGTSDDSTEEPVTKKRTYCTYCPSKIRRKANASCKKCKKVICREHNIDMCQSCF

“piggyBac transposase (PB), full-length, Trichoplusia ni (enzyme)” was tested, and the stoichiometry N [1] was 2.

B1: LE35hrpn (SNHP LE hairpin DNA) (structured_DNA)
DNA: CATGCGTCAATTTTACGCAGACTATCTTTCTAGGGTTAACCCTAGAAAGATAGTCTGCGTAAAATTGACGCATG
B1: binds [2].

B2: LE STC DNA (mixed)
DNA 1: CCGGCCCTAGAAAGATAGTCTGCGTAAAATTGACGCATGCA
DNA 2: TGCATGCGTCAATTTTACGC
DNA 3: AGACTATCTTTCTAGGGTTAAGACTGTGCCGC
DNA 4: GCGGCACAGTC
B2: binds [3].
